Results published in PMC10322149.

T1: Homer3, Q9NSC5
T1 chain: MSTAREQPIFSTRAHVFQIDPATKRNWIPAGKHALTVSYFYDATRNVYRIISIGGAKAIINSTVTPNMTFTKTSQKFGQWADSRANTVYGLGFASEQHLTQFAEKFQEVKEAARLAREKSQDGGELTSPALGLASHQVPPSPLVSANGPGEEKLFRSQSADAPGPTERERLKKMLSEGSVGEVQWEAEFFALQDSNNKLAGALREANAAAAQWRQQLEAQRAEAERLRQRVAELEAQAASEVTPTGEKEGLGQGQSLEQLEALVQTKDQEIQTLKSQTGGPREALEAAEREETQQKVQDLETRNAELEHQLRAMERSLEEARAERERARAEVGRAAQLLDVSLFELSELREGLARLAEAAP

T2: Pi-Homer3 (Homer3 phosphorylated by CaMKIIα), Q9NSC5
T2 chain: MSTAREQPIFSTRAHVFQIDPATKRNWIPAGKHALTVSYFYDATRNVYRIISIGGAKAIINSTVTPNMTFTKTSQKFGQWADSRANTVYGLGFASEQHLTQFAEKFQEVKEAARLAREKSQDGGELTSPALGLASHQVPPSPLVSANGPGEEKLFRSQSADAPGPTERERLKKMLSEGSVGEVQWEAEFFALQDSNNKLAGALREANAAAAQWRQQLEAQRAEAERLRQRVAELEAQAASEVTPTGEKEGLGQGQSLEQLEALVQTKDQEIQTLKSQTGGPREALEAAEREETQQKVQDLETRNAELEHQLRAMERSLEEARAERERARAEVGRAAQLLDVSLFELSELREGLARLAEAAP


Legend:
Homer3, Q9NSC5 = target: T1, Homer3, Q9NSC5; assay: SEC-MALS; FPLC coupled with static light scattering; Superose 12 10/300 GL; 50 mM Tris pH 8.0, 100 mM NaCl, 1 mM EDTA, 1 mM DTT; Homer3 and Pi-Homer3 at 50 μM; details: remark: other sources report otherwise
[1] = target: T2, Pi-Homer3 (Homer3 phosphorylated by …); assay: as above; details: remark: other sources report otherwise

| stoichiometry N (Homer3, Q9NSC5) | stoichiometry N [1] | Binder |
| --- | --- | --- |
| 4 | – | Homer3, Q9NSC5 1-361 (natural protein) MSTAREQPIFSTRAHVFQIDPATKRNWIPAGKHALTVSYFYDATRNVYRIISIGGAKAIINSTVTPNMTFTKTSQKFGQWADSRANTVYGLGFASEQHLTQFAEKFQEVKEAARLAREKSQDGGELTSPALGLASHQVPPSPLVSANGPGEEKLFRSQSADAPGPTERERLKKMLSEGSVGEVQWEAEFFALQDSNNKLAGALREANAAAAQWRQQLEAQRAEAERLRQRVAELEAQAASEVTPTGEKEGLGQGQSLEQLEALVQTKDQEIQTLKSQTGGPREALEAAEREETQQKVQDLETRNAELEHQLRAMERSLEEARAERERARAEVGRAAQLLDVSLFELSELREGLARLAEAAP |
| – | 4 | Pi-Homer3 (Homer3 phosphorylated by CaMKIIα), Q9NSC5 1-361 (natural protein, here or on the partner: phosphorylated by CaMKIIα at Ser residues in the central linker region (positions not given); phosphorylated by CaMKIIα at Ser residues in the central linker region (positions not given)) MSTAREQPIFSTRAHVFQIDPATKRNWIPAGKHALTVSYFYDATRNVYRIISIGGAKAIINSTVTPNMTFTKTSQKFGQWADSRANTVYGLGFASEQHLTQFAEKFQEVKEAARLAREKSQDGGELTSPALGLASHQVPPSPLVSANGPGEEKLFRSQSADAPGPTERERLKKMLSEGSVGEVQWEAEFFALQDSNNKLAGALREANAAAAQWRQQLEAQRAEAERLRQRVAELEAQAASEVTPTGEKEGLGQGQSLEQLEALVQTKDQEIQTLKSQTGGPREALEAAEREETQQKVQDLETRNAELEHQLRAMERSLEEARAERERARAEVGRAAQLLDVSLFELSELREGLARLAEAAP |
